From PMC6201861 come the findings set out here.

In this experiment the target is mAb-hERG1. Briefly: SPR; Biacore T200; mAb-hERG1 bound to a Protein G pre-coated CM5 chip (7693 RU); S5-Pore applied at 10, 50, 100, 500 nM, single cycle kinetics; contact 30 s, dissociation 120 s, 30 ul/min. On the technique in general: Surface plasmon resonance follows binding to a sensor surface in real time, without labels.

By Kd is commonly meant the concentration at which binding is half-saturated. Read a low Kd as higher affinity. One may read the koff as the first-order rate constant of dissociation. High values mean a short-lived complex, low ones a long-lived complex. Broadly, the kon is a measure of how fast the partners come together.

mAb-hERG1, sequence (heavy, as listed by the source, chain 1 of 2): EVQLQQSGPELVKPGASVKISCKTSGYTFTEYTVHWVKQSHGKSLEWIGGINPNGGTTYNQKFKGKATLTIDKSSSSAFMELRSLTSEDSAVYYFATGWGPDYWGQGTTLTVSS
mAb-hERG1, sequence (light, as listed by the source, chain 2 of 2): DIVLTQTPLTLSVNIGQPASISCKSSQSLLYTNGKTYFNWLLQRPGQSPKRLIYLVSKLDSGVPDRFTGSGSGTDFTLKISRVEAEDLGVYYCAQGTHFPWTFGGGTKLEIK

B1: S5-Pore peptide (peptide)
peptide: EQPHMDSRIGWLHN
B1 registered a Kd of 0.0162 µM, a koff of 0.0258 s⁻¹ and a kon of 1.6e+06 M⁻¹ s⁻¹.
